{"source": "paper doi:10.1101/2023.07.21.550003", "about": "(bioRxiv, 2023)", "binders": {"B1": {"name": "Clone 32 (scFv displayed on yeast) (scFv, V domains shown)", "VH": "EVQLVESGGGLVQPGGSLRLSCAASGFTFGEYTMDWVRQAPGKGLEWVADVNPNSGGSIYNKRFKGRFTLSVDRSKNTLYLQMNSLRAEDTAVYYCARNLGPSFYFDYWGQGTLVTVSS", "VL": "DIQMTQSPSSLSASVGDRVTITCKASQDVSIGVAWYQQKPGKAPKLLIYSASYRYTGVPSRFSGSGSGTDFTLTISSLQPEDFATYYCQQYYIYPYTFGQGTKVEIK", "notes": "as the heavy-chain variable region of m4 (Pertuzumab, PDB 1S78), with the changes of clone 32 among the 14 library positions; linker: three repeats of G4S between the VH and VL; as the light-chain variable region of m4 (Pertuzumab, PDB 1S78); The methods also say the library was built 'based on the AAL160 template antibody'; source: S. cerevisiae EBY100, yeast surface display (pCTCON2)"}}, "molecular_target": "T1, canonical HER2, extracellular region (residues 22-587) (human, UniProt P04626)", "T1 construct": "HER2 (ERBB2), human, extracellular region spanning residues 22-587, amplified from the complete cDNA clone BC156755 / P04626; Cloned in a modified p3XFLAG-CMV-25 vector; also called ERBB2; human epidermal growth factor receptor 2; source: HEK293F, transfected, purified from supernatant (HisTrap, Superdex200); not shown: FLAG, N-terminal, kept", "assay": "flow cytometry on cells; yeast clones displaying scFv (anti-c-myc-FITC for display) incubated with purified Flag-tagged HER2 variants at room temperature for 2 hours; anti-Flag iFluor 647", "settings": "one partner purified"}
{"binder": "B1", "values": [{"measurement": "binding result", "result": "binds"}]}
